IntAct's records for PubMed 29039417

B1: BBSome complex member BBS2 (Homo sapiens), Q9BXC9 (parent)
chain: MLLPVFTLKLRHKISPRMVAIGRYDGTHPCLAAATQTGKVFIHNPHTRNQHVSASRVFQSPLESDVSLLSINQAVSCLTAGVLNPELGYDALLVGTQTNLLAYDVYNNSDLFYREVADGANAIVLGTLGDISSPLAIIGGNCALQGFNHEGSDLFWTVTGDNVNSLALCDFDGDGKKELLVGSEDFDIRVFKEDEIVAEMTETEIVTSLCPMYGSRFGYALSNGTVGVYDKTSRYWRIKSKNHAMSIHAFDLNSDGVNELITGWSNGKVDARSDRTGEVIFKDNFSSAIAGVVEGDYRMDGHIQLICCSVDGEIRGYLPGTAEMRGNLMDTSAEQDLIRELSQKKQNLLLELRNYEENAKAELASPLNEADGHRGIIPANTRLHTTLSVSLGNETQTAHTELRISTSNDTIIRAVLIFAEGIFTGESHVVHPSIHNLSSSICIPIVPPKDVPVDLHLKAFVGYRSSTQFHVFESTRQLPRFSMYALTSLDPASEPISYVNFTIAERAQRVVVWLGQNFLLPEDTHIQNAPFQVCFTSLRNGGHLHIKIKLSGEITINTDDIDLAGDIIQSMASFFAIEDLQVEADFPVYFEELRKVLVKVDEYHSVHQKLSADMADHSNLIRSLLVGAEDARLMRDMKTMKSRYMELYDLNRDLLNGYKIRCNNHTELLGNLKAVNQAIQRAGRLRVGKPKNQVITACRDAIRSNNINTLFKIMRVGTASS
partner: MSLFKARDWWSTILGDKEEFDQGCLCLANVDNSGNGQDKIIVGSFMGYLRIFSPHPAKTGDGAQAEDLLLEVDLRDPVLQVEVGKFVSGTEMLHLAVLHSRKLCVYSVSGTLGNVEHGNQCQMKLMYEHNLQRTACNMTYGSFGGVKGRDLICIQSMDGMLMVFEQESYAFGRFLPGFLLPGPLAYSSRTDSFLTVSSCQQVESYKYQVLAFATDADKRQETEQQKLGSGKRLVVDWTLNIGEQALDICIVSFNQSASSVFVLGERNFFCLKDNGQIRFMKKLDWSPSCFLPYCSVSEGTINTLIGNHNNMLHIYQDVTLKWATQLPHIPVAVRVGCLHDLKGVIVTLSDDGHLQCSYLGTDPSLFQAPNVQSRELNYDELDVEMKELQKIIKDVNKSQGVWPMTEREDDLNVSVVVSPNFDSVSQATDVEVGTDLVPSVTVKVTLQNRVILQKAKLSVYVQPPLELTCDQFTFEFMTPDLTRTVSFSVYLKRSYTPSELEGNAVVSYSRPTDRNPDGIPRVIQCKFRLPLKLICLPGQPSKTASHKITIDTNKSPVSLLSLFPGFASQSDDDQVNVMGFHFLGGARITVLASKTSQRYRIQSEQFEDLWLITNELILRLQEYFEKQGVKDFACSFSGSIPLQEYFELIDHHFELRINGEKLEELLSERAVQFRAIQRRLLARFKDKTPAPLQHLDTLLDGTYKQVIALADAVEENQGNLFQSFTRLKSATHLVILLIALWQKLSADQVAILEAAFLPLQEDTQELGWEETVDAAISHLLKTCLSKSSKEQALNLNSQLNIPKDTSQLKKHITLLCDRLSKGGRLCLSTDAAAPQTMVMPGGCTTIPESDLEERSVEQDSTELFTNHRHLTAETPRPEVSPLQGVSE

Variants of: B1
Settings: with pthb1_human BBS9, Q3SYG4

Row | Variant | effect of a mutation on the interaction
1 | S537E | with no effect
2 | S537A | with no effect
3 | S537K | with no effect
4 | S537F | disrupting interaction strength
5 | T555H | disrupting interaction strength
6 | T555K | with no effect
7 | T555P | disrupting interaction strength
8 | T555A | with no effect
9 | T555E | with no effect
10 | H545A | with no effect
11 | H545E | with no effect
12 | H545K | with no effect
13 | E553A | with no effect
14 | E553K | with no effect
15 | I556K | with no effect
16 | I556A | with no effect
17 | I556E | with no effect
18 | I526K | with no effect
19 | I526E | with no effect
20 | I526A | with no effect
21 | V533A | with no effect
22 | V533E | disrupting interaction strength
23 | V533K | with no effect
24 | F535K | disrupting interaction strength

Row | Variant | effect of a mutation on the interaction
25 | F535E | disrupting interaction strength
26 | F535A | with no effect
27 | A529E | with no effect
28 | A529K | with no effect
29 | N540A | disrupting interaction strength
30 | N540K | with no effect
31 | N540E | with no effect
32 | P530K | with no effect
33 | P530E | with no effect
34 | P530A | with no effect
35 | Q532A | with no effect
36 | Q532K | with no effect
37 | Q532E | with no effect
38 | K547E | with no effect
39 | K547A | with no effect
40 | G542E | with no effect
41 | G542A | with no effect
42 | G542K | with no effect
43 | L544S | disrupting interaction strength
44 | L544K | with no effect
45 | L544E | disrupting interaction strength
46 | L544A | disrupting interaction strength
47 | D560A | disrupting interaction strength
48 | D560K | with no effect

Row | Variant | effect of a mutation on the interaction
49 | D560E | with no effect
50 | D559A | with no effect
51 | D559E | with no effect
52 | D559K | with no effect
53 | R539E | with no effect
54 | R539A | with no effect
55 | R539K | with no effect
56 | D523A | with no effect
57 | D523K | with no effect
58 | D523E | with no effect
59 | H543E | with no effect
60 | H543K | with no effect
61 | H543A | with no effect
62 | N528E | with no effect
63 | N528A | with no effect
64 | N528K | with no effect
65 | Q527E | with no effect
66 | Q527K | with no effect
67 | Q527A | with no effect
68 | I561F | disrupting interaction strength
69 | I561A | with no effect
70 | I561E | with no effect
71 | H525K | with no effect
72 | H525E | with no effect

Row | Variant | effect of a mutation on the interaction
73 | H525A | with no effect
74 | I548A | with no effect
75 | I548E | with no effect
76 | I548K | with no effect
77 | I554E | with no effect
78 | I554A | with no effect
79 | I554K | with no effect
80 | I554G | disrupting interaction strength
81 | L550A | with no effect
82 | L550K | with no effect
83 | L550E | with no effect
84 | G552A | with no effect
85 | G552E | disrupting interaction strength
86 | G552K | with no effect
87 | I546K | with no effect
88 | I546A | with no effect
89 | I546E | disrupting interaction strength
90 | N557K | with no effect
91 | N557E | with no effect
92 | N557A | with no effect
93 | S551A | with no effect
94 | S551E | with no effect
95 | S551K | with no effect
96 | T558A | with no effect

Row | Variant | effect of a mutation on the interaction
97 | T558E | with no effect
98 | T558K | with no effect
99 | T524A | with no effect
100 | T524E | with no effect
101 | T524K | with no effect
102 | C534K | with no effect
103 | C534E | with no effect
104 | C534A | with no effect
105 | T536E | with no effect
106 | T536A | with no effect
107 | T536K | with no effect
108 | G541A | with no effect
109 | G541E | with no effect
110 | G541K | with no effect
111 | L538A | with no effect
112 | L538E | with no effect
113 | L538K | with no effect
114 | K549A | with no effect
115 | K549E | with no effect
116 | F531A | with no effect
117 | F531K | with no effect
118 | F531E | with no effect

Further lines, results first:

Row | effect of a mutation on the interaction | Variant
119 | with no effect | V582A
120 | with no effect | V582E
121 | with no effect | S570A
122 | with no effect | S570K
123 | disrupting interaction strength | S570L
124 | with no effect | S570E
125 | with no effect | A576K
126 | with no effect | A576E
127 | with no effect | I577E
128 | with no effect | I577A
129 | with no effect | I577K
130 | with no effect | G565E
131 | with no effect | G565K
132 | with no effect | G565A
133 | with no effect | Q581K
134 | with no effect | Q581A
135 | with no effect | Q581E
136 | with no effect | D579K
137 | with no effect | D579E
138 | with no effect | D579A

Row | effect of a mutation on the interaction | Variant
139 | with no effect | F575K
140 | with no effect | F575E
141 | with no effect | F575A
142 | with no effect | A572K
143 | with no effect | A572E
144 | with no effect | D562E
145 | disrupting interaction strength | D562V
146 | with no effect | D562K
147 | disrupting interaction strength | D562A
148 | with no effect | M571K
149 | with no effect | M571E
150 | with no effect | M571A
151 | with no effect | I561K
152 | with no effect | E578K
153 | with no effect | E578A
154 | with no effect | F574E
155 | with no effect | F574K
156 | with no effect | F574A
157 | with no effect | L563K
158 | with no effect | L563A

Row | effect of a mutation on the interaction | Variant
159 | with no effect | L563E
160 | with no effect | D566E
161 | with no effect | D566K
162 | with no effect | D566A
163 | with no effect | S573K
164 | with no effect | S573A
165 | with no effect | S573E
166 | with no effect | Q569A
167 | with no effect | Q569E
168 | with no effect | Q569K
169 | with no effect | I567E
170 | with no effect | I567A
171 | with no effect | I567K
172 | with no effect | L580E
173 | with no effect | L580K
174 | with no effect | L580A
175 | with no effect | A564E
176 | with no effect | A564K
177 | with no effect | I568A
178 | with no effect | I568K
